Laboratory results as given in doi:10.1101/205575.

What was measured:
[1] = tested on: AsCpf1 (Cas12a) (Acidaminococcus sp.?); experiment: smFRET titration; conditions: amino-dT in non-target strand, pH 8.0 ([…]) or pH 7.0 ([…]
FnCpf1 (Cas12a) = experiment: smFRET titration; conditions: amino-dT in non-target strand, pH 8.0 ([…]) or pH 7.0 ([…]

## cognate DNA target (nPD=0) with Cy5 guide-RNA
[1]
  Kd: 0.1 nM
FnCpf1 (Cas12a)
  Kd: 0.27 nM
